Results reported in patent EP4368203A1 (Wuhan Neurophth Biotechnology Limited Company, dated 2024).

Target: T1, rat VEGF (in rat serum) (rat, UniProt P16612-2 27-190, limits assumed)
T1 construct: also called VEGF in rat serum samples
T1 sequence (looked up): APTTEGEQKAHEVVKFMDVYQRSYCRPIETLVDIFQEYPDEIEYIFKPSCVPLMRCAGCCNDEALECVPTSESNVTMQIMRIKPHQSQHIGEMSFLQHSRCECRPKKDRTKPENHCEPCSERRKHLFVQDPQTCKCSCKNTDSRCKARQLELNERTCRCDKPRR
Assay: Western blot, cell supernatant as primary antibody

B1: anti-VEGF Fab expressed by the MDR6 plasmid (culture supernatant of transfected cells) (Fab, V domains shown)
VH: EVQLVESGGGLVQPGGSLRLSCAASGYDFTHYGMNWVRQAPGKGLEWVGWINTYTGEPTYAADFKRRFTFSLDTSKSTAYLQMNSLRAEDTAVYYCAKYPYYYGTSHWYFDVWGQGTLVTVSS
VL: DIQLTQSPSSLSASVGDRVTITCSASQDISNYLNWYQQKPGKAPKVLIYFTSSLHSGVPSRFSGSGSGTDFTLTISSLQPEDFATYYCQQYSTVPWTFGQGTKVEIKR
notes: also called M6
B1: no binding (tested: 5 ug of rat serum).
